Source: article PMC5651433 (Alzheimer's & Dementia : Translational Research & Clinical …, 2017)
Non-standard residues stand in square brackets, D forms with d. No end group written: not given here. pY = N[C@@H](Cc1ccc(OP(=O)(O)O)cc1)C(=O)O; pS = N[C@@H](COP(=O)(O)O)C(=O)O

Tests used:
[1] = molecular target: endogenous Aβ (AD hippocampus) (human (endogenous in postmortem hippocampus)); experiment: FRET or BRET
[2] = molecular target: the molecule itself; experiment: nonreducing SDS-PAGE of peptide polymers
[3] = molecular target: the molecule itself; experiment: reducing SDS-PAGE and Western blotting of SDS-resistant polymers

With “endogenous Zfra (human hippocampus) (natural protein)” the FRETc [1] was over 45.

DPGPGGQKMSL[pS]VLE [pS35-TPC6A24-38]: binds [2].

MSSRRSSSCKYCEQDFRAHTQKNAATPFLAN [Zfra1–31 (zinc finger-like protein that regulates apoptosis, full-length synthetic peptide)]: binds [3].

D[pY]WAMLAYNRSKLC [pY287-WWOX286-299]: binds [2].

DYWAMLAYNRSKLC [WWOX286-299]: binds [2].

AGLDDTDSEDELPPG [WWOX7-21]: binds [2].

AGLDDTD[pS]EDELPPG [pS14-WWOX7-21]: binds [2].

RIQNP[pS]LRENDFIEIE [pS271-ANKRD40266-281]: binds [2].

RIQNPSLRENDFIEIE [ANKRD40266-281]: binds [2].
